Measurements: patent US20230159650A1 (SEOUL NATIONAL UNIVERSITY R AND DB FOUNDATION, published 2023)
Where a chain is given by its changes, count along the chain named. Values belong to the binder of their own block, whether it stands above or below them.

Target: T1, human FasL where an immunoglobulin (IgG) is combined (huFasL-IgG) (human, UniProt P48023 134-281, limits assumed)
T1 construct: also called IgG-combined FasL; not shown: immunoglobulin (IgG) part
T1 sequence (looked up): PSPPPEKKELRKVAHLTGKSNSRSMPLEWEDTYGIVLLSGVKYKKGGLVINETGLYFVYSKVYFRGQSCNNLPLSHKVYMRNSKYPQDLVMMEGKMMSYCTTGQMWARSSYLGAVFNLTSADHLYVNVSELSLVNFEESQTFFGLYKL
Test: flow cytometry on transfected mouse cells
Description: After transfecting mutated huDR5 DNA to mouse cells and expressing each of DR5 where huDR5-CRD2 was mutated (Table 1, SEQ ID NO: 4), or DR5 where huDR5-CRD3 was mutated (Table 1, SEQ ID NO: 5), flow cytometry was performed using human FasL where an immunoglobulin (IgG) binding only to cells expressing huDR5 was combined (huFasL-IgG), and the result was shown in FIG. 8b.

binding result: no binding
B1: DR5 where huDR5-CRD2 was mutated (Mutation huDR5-CRD2 Protein) (receptor)
chain: ITQQDLAPQQRAAPQQKRSSPSEGLCPPGHHISEDGRDCISCKYGQDYSTHWNDLLACLACTRCAAGEVELSPCTTTRNTVCQCEEGTFREEDSPEMCRKCRTGCPRGMVKVGDCTPWSDIECVHKESGIIIGVTVAAVVLIVAVFVCKSLLWKKVLPYLKGICSGGGGDPERVDRSSQRPGAEDNVLNEIVSILQPTQVPEQEMEVQEPAEPTGVNMLSPGESEHLLEPAEAERSQRRRLLVPANEGDPTETLRQCFDDFADLVPFDSWEPLMRKLGLMDNEIKVAKAEAAGHRDTLYTMLIKWVNKTGRDASVHTLLDALETLGERLAKQKIEDHLLSSGKFMYLEGNADSAMS
notes: Expressed in transfected mouse cells; also called huDR5-CRD2 mutant

binding result: no binding
B2: DR5 where huDR5-CRD3 was mutated (Mutation huDR5-CRD3 Protein) (receptor)
chain: B1 chain with A57F, A60R, A65D, A66S, S94A, E96A, R99A, R102A
notes: Expressed in transfected mouse cells; also called huDR5-CRD3 mutant
